Substitutions are numbered along the chain they refer to.
Target: T1, GDF11 (UniProt O95390 299-407)
T1 construct: also called BMP11
T1 sequence (looked up): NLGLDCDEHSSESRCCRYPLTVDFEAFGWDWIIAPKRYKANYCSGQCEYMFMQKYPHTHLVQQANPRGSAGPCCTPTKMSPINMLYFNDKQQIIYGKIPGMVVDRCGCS
Assay: Biacore; ligand coupled to chip, receptor flowed over (table reproduced from WO2006/012627)

B1: Soluble ActRIIB-Fc D80I (Fc fusion, not shown: a dimerising Fc or GST)
chain: SGRGEAETRECIYYNANWELERTNQSGLERCEGEQDKRLHCYASWANSSGTIELVKKGCWLIDFNCYDRQECVATEENPQVYFCCCEGNFCNERFTHLPEA
notes: From WO2006/012627; background 64A inferred
- binding as fraction of WT binding: < 0.2 fold

B2: Soluble ActRIIB-Fc K74F (Fc fusion, not shown: a dimerising Fc or GST)
chain: B1 chain with K56F, I62D
notes: as for B1
- binding as fraction of WT binding: < 0.2 fold

B3: Soluble ActRIIB-Fc K74Y (Fc fusion, not shown: a dimerising Fc or GST)
chain: B1 chain with K56Y, I62D
notes: as for B1
- binding as fraction of WT binding: < 0.2 fold

B4: Soluble ActRIIB-Fc K74I (Fc fusion, not shown: a dimerising Fc or GST)
chain: B1 chain with K56I, I62D
notes: as for B1
- binding as fraction of WT binding: < 0.2 fold

Reference: patent US20250222069A1 (ACCELERON PHARMA, published 2025)
